Measured values: publication PMC3458930

Tests used:
[1] = molecular target: caspase-7 (UniProt P55210); assay: co-immunoprecipitation, Flag-tagged αB-crystallin; conditions: reference: wild type; sites S45
[2] = molecular target: caspase-3 (UniProt P42574); assay: co-immunoprecipitation, Flag-tagged αB-crystallin; conditions: reference: wild type; sites S45

binding against the reference [1]: weaker
binding against the reference [2]: weaker
Substance: αB-crystallin (from UniProt P02511) S45A
